Laboratory results: the supplement of paper PMC10567573

B1: NCK2 (parent)
chain: YTGPSSSGRFAGREWYYGNVTRHQ
B2: TPD52L1 (parent)
chain: ISKKFGDMSYSIRHSISMPAMRNS
B3: PTPN9 (parent)
chain: LKGAFPARLKKVLIVGAPIWFRVP

Variants of: B1
Assay: protein stability index of a GFP-peptide fusion (GPS, HEK-293T) (PSI 1-6); higher = more stable
Settings: c terminus: a fixed tail appended
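Note: lentivirally expressed fusions sorted by FACS into six bins by GFP to DsRed ratio, PSI derived from sequencing read proportions per bin multiplied by bin number.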

Protein stability index of substitutions, site by site:
Y17: A 2.11, Q 1.97, P 1.76, T 1.36, R 2.19, L 1.58, H 2.06, S 2.44, I 3.41, C 1.77, N 1.59, K 1.91, V 1.89, G 2.83, M 1.87, E 2.56, D 2.64
T21: I 1.87, N 2.4, L 2.34, M 2.29, R 1.68, F 2.53, E 2.05, Y 1.91, H 1.9, Q 1.78, A 1.84, V 2.64, S 2.13, G 1.45, K 1.74, C 2.37, P 2.06, D 1.76
Y16: F 2.26, N 2.13, I 2.19, A 2.24, D 2.27, H 2.03, T 2.45, G 1.81, C 2.03, V 1.5, W 2.29, L 1.59, E 2.26, S 2.33, Q 2.37, K 2.06, R 1.98, M 1.61
H23: M 1.56, G 1.88, E 1.47, V 1.56, P 1.23, S 1.79, F 1.79, Q 1.31, L 2.81, A 2.86, C 1.07, T 1.46, W 2.71, K 2.33, N 2.09, R 1.53, D 2.52, I 2, Y 1.42
G18: M 1.55, V 2.68, Q 2.23, I 1.74, C 2.35, H 2.11, P 1.89, D 2.39, L 3, K 2.64, R 2.44, Y 2.03, N 2.49, A 1.46, F 1.6, T 1.04, S 2.99, W 2.18, E 1.44
R22: H 1.33, N 2.35, V 2.18, W 1.61, D 1.65, M 1.79, E 1.85, Q 2.17, Y 2.17, P 1.14, G 2.62, K 1.46, C 1.7, A 2, F 2.65, L 1.56
Q24: L 2.07, P 2.07, S 2.25, V 2.17, K 2.42, E 1.41, F 1.59, D 2.51, G 1.56, C 2.61, W 2.83, R 1.55, M 2.44, T 1.18, N 1.62, I 2.01, A 1.96, Y 1.72, H 1.85
V20: D 2.92, L 1.88, F 1.59, K 2.2, I 2.71, C 2.13, R 2.42, N 1.98, A 1.73, T 1.75, S 1.66, Q 1.83, M 1.85, G 2.57, E 1.67, Y 2.44, H 2.34, P 1.81
N19: G 1.63, S 1.44, K 1.38, E 1.53, F 2.01, D 1.76, P 2.58, I 1.53, Q 3.23, W 3.18, H 2.12, L 2.05, T 2.44, M 3.08, A 2.09, C 1.55, R 2.53, V 1.61, Y 1.91
W15: Y 2.23, N 2.73, P 2.36, L 1.77, S 1.5, D 2.83, E 2.52, M 2.18, A 2.49, R 2.35, H 2.66, I 1.71, G 2.82, F 2.19, V 2.36, C 2.19, T 2.28, Q 2.36, K 2.22
E14: R 2.58, G 1.69, M 1.64, P 1.87, H 2.69, Y 1.3, K 2.03, N 1.78, V 2.56, W 1.92, S 1.67, I 1.58, Q 2.09, L 1.68

Variants of: B2
Assay: as above
Settings: c terminus: a fixed tail appended

Protein stability index: each site, then its substitutions
Y10: A 2.91
S15: F 1.42
F5: V 2.51, K 2.44
D7: G 1.68
S24: T 2.74, C 1.92
N23: S 2.26, Y 1.51
P19: K 1.83
K3: P 2.63
H14: C 2.73
I16: N 2.61
G6: M 2.62
M8: T 2.33
S11: F 1.91
R22: Q 2.3, M 2.25
A20: D 3.36, C 2.38
S17: H 2.15
K4: R 2.65
M18: I 2.53
S9: V 2.03, K 2.37
M21: N 2.68, H 2.46

Variants of: B3
Assay: as above
Settings: c terminus: a fixed tail appended

Protein stability index of substitutions, site by site:
I19: T 4.11, E 2.64, S 1.95, H 1
L1: I 4.73, C 3.38, V 3.26, K 2.78, S 4.61, W 2.11
L9: V 4.71, K 2.57, F 1.64
W20: F 2.45, K 2.56, H 4.59, S 2.41, E 3.74
F5: L 3.82, T 2.25, I 3.12, P 2.49
V15: Q 1.55, S 1.37, K 1.37, F 2.48, D 2.44, Y 2.25, W 1.27, H 2.46, T 2.46
G3: K 3.39, A 2.89, D 3.16, S 3.35
I14: R 2.87, A 4.13, D 1.46, N 1.37, L 2.73, E 1.09, P 2.98
R8: S 3.94, M 2.46, W 2.35, N 2.74, L 2.2, F 2.79, G 2.76
P6: M 1.86, H 2.28
R22: G 2.34, P 3.02, H 2.47, D 1.87, L 4.03
V12: N 3.54, R 2.3, G 1.27, A 3.43, T 2.61
F21: N 2.65, L 1.57, R 2.39
A4: D 3.24, F 2.49, Q 2.61, L 3.88, I 3.45
K10: S 3.47, Q 2.94, Y 2.2
K2: N 2.18, F 1.26, A 2.1, L 3.37, R 3.96
V23: P 2.07, D 2.11
P24: D 4.03, E 1.31, K 3.06, L 3.02
A7: Q 2.24, F 3.16, V 2.57
A17: L 3.42, N 2.61, F 2.16, K 2.28, T 4.8
L13: N 1.7, P 2.55, I 3.11, D 1.01, F 2.82
P18: C 2.33, G 4.24, W 4.58, T 1.99
G16: W 1.74, F 2.2, R 3.43, P 5.02, I 1.57, N 2.29
K11: F 4.03, E 2.73, I 2.21, G 1.84, H 1.99
